Measurements: paper PMC4540782, “Latent and active aurone synthase from petals of C. grandiflora: a polyphenol oxidase with unique characteristics” (Planta, 2015)

How the values were obtained:
[1] = target: T1, latent recombinant cgAUS1 (pro-cgAUS1) (Coreopsis grandiflora, UniProt A0A075DN54); test: spectrophotometric pH profile; format: biochemical; conditions: 25 µM butein, 125 mM sodium citrate, pH 3.5 to 7.4; no allosteric activation
T1 construct: heterologously expressed latent pro-enzyme with C-terminal shielding domain
T1 sequence (A0A075DN54 86-602): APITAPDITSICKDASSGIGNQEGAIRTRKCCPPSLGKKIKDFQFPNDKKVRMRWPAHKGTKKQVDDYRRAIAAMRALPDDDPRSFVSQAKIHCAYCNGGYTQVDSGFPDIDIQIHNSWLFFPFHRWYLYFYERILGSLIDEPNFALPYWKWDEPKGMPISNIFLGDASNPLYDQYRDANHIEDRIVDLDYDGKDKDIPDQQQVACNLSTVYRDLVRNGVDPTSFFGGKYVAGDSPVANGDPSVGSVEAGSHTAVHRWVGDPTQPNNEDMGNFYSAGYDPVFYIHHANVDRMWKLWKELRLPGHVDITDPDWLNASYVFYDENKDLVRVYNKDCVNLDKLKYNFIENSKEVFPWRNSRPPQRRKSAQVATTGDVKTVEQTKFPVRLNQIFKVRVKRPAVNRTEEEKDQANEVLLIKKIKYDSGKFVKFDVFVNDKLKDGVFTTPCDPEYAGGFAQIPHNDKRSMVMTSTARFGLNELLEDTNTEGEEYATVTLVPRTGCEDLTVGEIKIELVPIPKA

[2] = test system: T2, CC(C)(C)c1ccc(O)c(O)c1; test: purified protein; format: biochemical, Coreopsis grandiflora; conditions: pH 5.5, suicide substrate
T2 construct: main core API-IENSKE plus disulfide-linked C-terminal peptide D438-G452; partly phosphorylated or sulfated at Tyr230

[3] = test system: T3, Cc1ccc(O)c(O)c1; test: purified protein; format: biochemical, Coreopsis grandiflora; conditions: pH 5.5, suicide substrate
T3 construct: main core API-IENSKE plus disulfide-linked C-terminal peptide D438-G452; partly phosphorylated or sulfated at Tyr230

[4] = test system: T4, O=C(/C=C/c1ccc(O)c(O)c1)c1ccc(O)cc1O; test: purified protein; format: biochemical, Coreopsis grandiflora; conditions: pH 5.5, diphenolase, butein to sulfuretin
T4 construct: main core API-IENSKE plus disulfide-linked C-terminal peptide D438-G452; partly phosphorylated or sulfated at Tyr230

[5] = test system: T5, Oc1ccccc1O; test: purified protein; format: biochemical, Coreopsis grandiflora; conditions: pH 5.5
T5 construct: main core API-IENSKE plus disulfide-linked C-terminal peptide D438-G452; partly phosphorylated or sulfated at Tyr230

Row | Molecule | spectrophotometric pH profile [1] | Km [2] | Vmax [2] | kcat [2] | Km [3] | Vmax [3] | kcat [3] | kcat/Km [3] | Km [4] | Vmax [4] | kcat [4] | kcat/Km [4] | Km [5] | kcat [5] | kcat/Km [5]
1 | O=C(/C=C/c1ccc(O)c(O)c1)c1ccc(O)cc1O [Butein] | pH optimum of recombinant pro-cgAUS1 (filled triangle, dashed lines) and active cgAUS1 |  |  |  |  |  |  |  |  |  |  |  |  |  | 
2 | active cgAUS1 (aurone synthase), sample 1 (Coreopsis grandiflora; DEL436-522) |  | 504 ± 20 µM | 2260 ± 23 µmol/min/mg | 1560 ± 16 s⁻¹ | 3110 ± 120 µM | 2300 ± 39 µmol/min/mg | 1590 ± 27 s⁻¹ | 512000 ± 22000 M⁻¹ s⁻¹ | 52 ± 3 µM | 489 µmol/min/mg | 464 ± 16 s⁻¹ | 8.93e+06 ± 649000 M⁻¹ s⁻¹ | 4040 ± 690 µM | 869 ± 41 s⁻¹ | 215000 ± 38000 M⁻¹ s⁻¹
